B1: As271_10 (peptide)
peptide: MLEAGAEANL
notes: read as 39 from its place between 38 and 40

Target: T1, HLA-A*02:01 (human)
T1 construct: whole, on cells; Empty class I molecule on TAP-deficient T2-A24 cells; detected with anti-HLA-A02 antibody BB7.2
Assay: T2-A24 MHC class I stabilization, flow cytometry, anti-HLA-A02 BB7.2-FITC, peptide 100 ug/mL

| Binder | MFI (solvent ratio) |
| --- | --- |
| PLLSLPLSL [As405_9] | 2.2 ratio to solvent |
| SILCAKQLV [As152_9] | 1.8 ratio to solvent |
| KLKSSWATGL [As70_10] | 1.1 ratio to solvent |
| IYPPQFHKV (also called ASB4 peptide) [IV9] | 0.9 ratio to solvent |
| HVLMHMMLEA [As265_10] | 2 ratio to solvent |
| QYVLKVTSV [As290_9] | 1 ratio to solvent |
| GLSELVAFYV [As186_10] | 2.6 ratio to solvent |
| KLVKRNFLEAL [As15_11] | 1 ratio to solvent |
| KILCDRGAKL [As124_10] | 1.6 ratio to solvent |
| KYWDFYHSLFTV [As365_12] | 1 ratio to solvent |
| CYSLSGHTAL [As135_10] | 1.6 ratio to solvent |
| KQLVWRGANV [As157_10] | 1.2 ratio to solvent |
| AAQPEICYQLL [As301_11] | 2.6 ratio to solvent |
| RMLLDYKAEV [As236_10] | 3.3 ratio to solvent |
| PLAIAAYWAL [As211_10] | 1.1 ratio to solvent |
| ILCDRGAKL [As125_9] | 1.9 ratio to solvent |
| HFCTTPSSIL [As145_10] | 1 ratio to solvent |
| HLSVLFGHV [As80_9] | 1.6 ratio to solvent |
| HFGLSELVAFYV [As184_12] | 3.1 ratio to solvent |
| B1 | 1 ratio to solvent |
| FEVEDENMVL [As48_10] | 1 ratio to solvent |

| Binder | MFI (solvent ratio) |
| --- | --- |
| ATGLHLSVLF [As76_10] | 0.9 ratio to solvent |
| LLNHGAARI [As311_9] | 0.9 ratio to solvent |
| KYWDFYHSL [As365_9] | 1.1 ratio to solvent |
| QIDVDTVFEV (41-50 follows from start and length) [As41_10] | 1.2 ratio to solvent |
| AFYVEHGAIF [As192_10] | 1.1 ratio to solvent |
| VLFGHVECLL [As83_10] | 3.6 ratio to solvent |
| SLPLSLKKYL [As408_10] | 1 ratio to solvent |
| VVVNAYEHI [As340_9] | 0.9 ratio to solvent |
| AILIQRQIDV [As35_10] | 3.4 ratio to solvent |
| SVLFGHVECL [As82_10] | 3.3 ratio to solvent |
| HVECLLVLL [As87_9] | 1.5 ratio to solvent |
| AIPLLSLPL [As403_9] | 0.9 ratio to solvent |
| TLMHLSRCAI [As383_10_5L] | 2.4 ratio to solvent |
| YLLLEPEGII [As416_10] | 2.8 ratio to solvent |
| IQYVLKVTSV [As289_10] | 1.2 ratio to solvent |
| DFYHSLFTV [As368_9] | 1 ratio to solvent |
| GYWLPSYKL [As63_9] | 1.1 ratio to solvent |
| LVLLDHNATI [As92_10] | 2.6 ratio to solvent |
| LMDINGCAAI [As280_10] | 3.1 ratio to solvent |
| DFGKLKAIL [As29_9] | 1 ratio to solvent |
| CYQLLLNHGA [As307_10] | 2.5 ratio to solvent |

Target: T2, HLA-A*24:02 (human)
T2 construct: whole, on cells; Empty class I molecule on T2-A24 cells
Assay: T2-A24 MHC class I stabilization, flow cytometry, anti-HLA-A24 17A10-FITC, peptide 100 ug/mL;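 note: peptide exposure stabilizes otherwise empty class I molecules on T2 cell surfaces, so surface class I level reflects how strongly the peptide binds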
Procedure: T2 cells can usually only express a low level of empty MHC class I molecules on the cell surface. However, when a peptide that can bind to the MHC class I molecule is added, the empty MHC class I molecule binds to the peptide and can be present on the cell surface in a stable manner. Therefore, the cell surface MHC class I expression level depends on the MHC class I binding affinity of a peptide.
The T2-A24 cells were subcultured at 37° C. under 5% CO₂. […] These peptides were dissolved in DMSO and further diluted by 200 times with RPMI 160 medium. A cell suspension and the peptide solution were mixed and cultured under conditions of 5% CO₂ and 26° C. for 16 to 18 hours. Co-culturing was carried out at a temperature of 37° C. for a further 3 hours, the supernatant was then removed by centrifuging, and cells were isolated. […] Subsequently, the cells were washed with 3% FBS-containing PBS, 4% paraformaldehyde phosphate buffer was added, and the mixture was allowed to stand at room temperature for 10 minutes to thus fix the cells. The fixed cells were subjected to measurement of FITC fluorescence intensity by a flow cytometer (FACScan). The mean fluorescence intensity (MFI) was calculated as a solvent ratio.

| Binder | MFI (solvent ratio) |
| --- | --- |
| PLLSLPLSL [As405_9] | 2.8 ratio to solvent |
| KLKSSWATGL [As70_10] | 1 ratio to solvent |
| IYPPQFHKV (also called ASB4 peptide) [IV9] | 3.3 ratio to solvent |
| GLSELVAFYV [As186_10] | 1.1 ratio to solvent |
| KLVKRNFLEAL [As15_11] | 1 ratio to solvent |
| KILCDRGAKL [As124_10] | 2.2 ratio to solvent |
| KYWDFYHSLFTV [As365_12] | 2.4 ratio to solvent |
| CYSLSGHTAL [As135_10] | 2.4 ratio to solvent |
| KQLVWRGANV [As157_10] | 1 ratio to solvent |
| AAQPEICYQLL [As301_11] | 2 ratio to solvent |
| RMLLDYKAEV [As236_10] | 1 ratio to solvent |
| LLLNHGAARI [As310_10] | 1.2 ratio to solvent |
| PLAIAAYWAL [As211_10] | 2.1 ratio to solvent |
| ILCDRGAKL [As125_9] | 1.8 ratio to solvent |
| HFCTTPSSIL [As145_10] | 1.2 ratio to solvent |
| HLSVLFGHV [As80_9] | 2.1 ratio to solvent |
| HFGLSELVAFYV [As184_12] | 3.2 ratio to solvent |
| B1 | 1.2 ratio to solvent |
| ATGLHLSVLF [As76_10] | 2.1 ratio to solvent |
| LLNHGAARI [As311_9] | 0.9 ratio to solvent |

| Binder | MFI (solvent ratio) |
| --- | --- |
| KYWDFYHSL [As365_9] | 2.5 ratio to solvent |
| QIDVDTVFEV (41-50 follows from start and length) [As41_10] | 1.1 ratio to solvent |
| AFYVEHGAIF [As192_10] | 2.2 ratio to solvent |
| VLFGHVECLL [As83_10] | 2.8 ratio to solvent |
| SLPLSLKKYL [As408_10] | 1 ratio to solvent |
| VVVNAYEHI [As340_9] | 1 ratio to solvent |
| AILIQRQIDV [As35_10] | 1.1 ratio to solvent |
| SVLFGHVECL [As82_10] | 2.7 ratio to solvent |
| HVECLLVLL [As87_9] | 1.6 ratio to solvent |
| AIPLLSLPL [As403_9] | 1.1 ratio to solvent |
| RIYPPQFHKV [As318_10] | 3.6 ratio to solvent |
| TLMHLSRCAI [As383_10_5L] | 1 ratio to solvent |
| IQYVLKVTSV [As289_10] | 1.5 ratio to solvent |
| DFYHSLFTV [As368_9] | 1.1 ratio to solvent |
| GYWLPSYKL [As63_9] | 1.2 ratio to solvent |
| LVLLDHNATI [As92_10] | 1.1 ratio to solvent |
| LMDINGCAAI [As280_10] | 1.2 ratio to solvent |
| DFGKLKAIL [As29_9] | 1 ratio to solvent |
| CYQLLLNHGA [As307_10] | 1.9 ratio to solvent |

— patent US20170360911A1 (SAPPORO MEDICAL UNIVERSITY, published 2017)
